This data set in a line: soluble fraction after stress (log2 fold change); higher = more stays soluble; pooled small domains, quantitative proteomics. Conditions: stress: 50 degC. In short, it runs like this: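 Pooled custom libraries of small protein domains were each held under stress at 50°C. The read-out, high-throughput quantitative proteomics, tracked how much of each protein stayed soluble. This is reported as a base-two log fold change used to indicate aggregation propensity. Higher values mean more protein remains in solution.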

Consider “HMPQISQDDLMEAGLIVGKEAKQRRIKLGEILGIGYVNAKQLPKRLQLFQVAKSDFEQAVQQIDG”, for which the “soluble fraction (log2)” value is -0.0431.

Take “HMFPELSEEAKVIVDALSKENDQQLNVLIANTGMAVGTMQAKLFELEMQGVVKPLAGSVYHLM”: the “soluble fraction (log2)” value is -0.0727. To “HMVGNEEALRAIVESIIAQNTTEVASFREGKEGLIGWFLGQVMRQTGGKADPKLARQILLELLKQ” belongs -0.242. Regarding “HMIYNSGTTDSRGEAIVGGYLVTVTDTDTKDPVANAAVTLHKDNSISIRLPNSRLLDYADQTTVTVQLV”, the “soluble fraction (log2)” value was -0.0327. On to “HMRQTGWVTADSLNVRARPSLQAERVEKVTYGQQVQIMFKQGQWYQIATENGKIGWVSSEYIAAVSP”, for which the “soluble fraction (log2)” value is -0.0654. To “HMDARSTHIAAIHVLKSKLQLQDSDYRALLLTLTGQTSSKDLSEHQRRAVRNHMQQLAERMGVVQ” belongs -0.533; to “HMAPPPPEGYIHRWIRESVMGFDDKKNLSARIREGFELVRAEEYPDYEAPTVMDGKHAGVIANGGLLLARF”, -0.148. To “HMQKLKINKYKDPKGEIRYYIASTIRNGNKSSTHNLLSLGKHSDLLKEHSDVEAYLKERLNEAMESGI” belongs -0.145. For the sequence “HMKEIDVPNVVGASENAARKLLESYGFQVEVQWENGERVDNAVVKSYSPNGSAKSGSTVTIVLGT”, the “soluble fraction (log2)” value amounted to 0.062.

For “HMGKELSTVVVPDLTGLSVLEARNVLTKVGLQLTPSGAGIAFKQIPTPGTRLTLGATVTVYFVATGY”, the “soluble fraction (log2)” value turned out to be 0.0979. To “HMAPTGTDRQTPHTRDELYLVLSGTGTFVNGDARHPFGPGDALFVPAGAEHRFEDFSDDFRTWVVFYGAEG” belongs -0.162; to “HMHANSDVEQLMQMGIQRLNFQRYSDALLIFNQIIENFPDYAEAWNKRATLHYLLGNLDKSIADIEQTLE”, -2.54. Under “HMSPSQFRSKSLLVEINFASRQMDGEILQGDYAGKRLSELTEAEVQELTAWLKQSDRESFVLLQAYLLRSG” stands -0.881; under “HMSLSDDIAQTLRQLGFDRDVSETLANDVLPAMPTRQDVIDLLGTLGIEKHVAADFANFVVLN”, -0.723; under “HMSGPMVPNVVGLSEEMARALLSDYSITIKHAHDGVIPKDRVASQLPLATTHAKVGSSVVLTIS”, -0.354. Under “HMFDGNIKIVEDAFSVTIVARGTEVKISGDPENVYLASKTVEGLLTLIDKGEAITDQRVHYVIGLVREG” stands -2.65. Take “HMAPPIQQQVESLMNSFAKIGVTVPMLESRLQHAMSAVTANELVMLRKIGASIRDGFATVAEQFPA”: the “soluble fraction (log2)” value is 0.0539.

With “HMGPVDFYQMFISELQHLAEKPVTVDALIESTQLHKSQLTEWLKRAVDDGVVKKLNRPARFQVKNK”, the “soluble fraction (log2)” value is -0.029. To “HMAAHHIILEEREQLSVSGVEEVESFDENTIVMLTNRGTLIVRGEELHIEKLSLDGGDLRVEGSIDSLTYE” belongs -0.274; to “HMEAIYKKNKNLIHTVIRDNFPFLIDTADYEDAFQEGSIGLIRAIDRFDDGLEYKFSSYAYTAIRNQIA”, -0.409. As to “HMEDPRVTEIKNLQQDLAKKFKPTQGPASASDAVERVTAITTVMTKVAALPEDLRSEAMQPGKKM”, the “soluble fraction (log2)” value was -0.322.

Regarding “HMSTIKEKIIQYLDFKGISKYDFYQKTGVSNGVLSQKSGMSEDNIMRFLSYYDDINTDWLFYGKGEMIKT”, the “soluble fraction (log2)” value is -1.13. Under “HMRGSRIFSGDVSPLTLPANSPFFSGYTEFKPGDVYVERSATNIAMWEWKSQPGGYTWVKTADIA” stands -0.169.

“HMNNKVAVKSGYYFELFDKDEIPATLEKMKQKVKIDNIKYDLYQGTSLEDERKIDTMFGEKMGYSIDDYI”: the “soluble fraction (log2)” value turned out to be 0.0224. As to “HMIDEKVQAADKSIEIGNLSPLKGLVTDDEMHELEKLFEKVMALKDFEVNDVGAGRKYIEAYVSFFKFAEG”, the “soluble fraction (log2)” value is -0.661. On to “HMKSIFIRADELAAELDVSKALAYKMINQWNEELKAKGYTTVGGRVSRQYYYEKIYGAENVFDF”, for which the “soluble fraction (log2)” value was -2.37. Under “HMVLVGERRQKILEVVSSGKAVTVEELSRILHVSPSTVRRDLRFLESRGLLYRTHGGAMPPV” stands -1.1. Regarding “HMKQAVESAEAIFEEIARIKKLSLVKSEAEEIARKTGLQKFTIASQLLKNQHAYEMDESEIASLWDKKI”, the “soluble fraction (log2)” value came to 0.0237. To “HMDLSQTVQAKALARVNVREGAGTHFKSLGKLKKGELLPVFRVGNSWASIWWKGRVAYVHTDYLRFESA” belongs -0.847. Under “HMGGNKILTWKTDAATTRNQVPINERKEGLEISYKNEERNWVAEKYVGTSFSDDKWGVDYNWNQD” stands 0.421; under “HMTKIKAIFFDIDGTIRSFKTKTIPENTANTLKKLKEQGIKIFIATGRAPFHTTFLNDLLDFKFDGYITIN”, -0.282; under “HMGGGRELGLDPETGKKISVRLGKFGPFVQLGESGEEDKPVFANLGKNQSIATLSLEEAIALLARPK”, 0.246. To “HMSELADDPVYTALEKAADKAGLQLTVRILNDLADAVLKRGKKKLTAAQAGKVIARAESELAKSRID” belongs -0.0759; to “HMEKTIQIYDNIIIKDFAEKMEVSPSQVITKLIGLGVMANLNQPIDINSAVIVGKEFGFNVESM”, -0.674.

Regarding “HMATNVLEISTRNKNILIQDSLNLVESFYSKSDNQYWYKLVFKTKDDLNKFLQEVSEDENTITYKTSSI”, the “soluble fraction (log2)” value stood at 0.217. To “HMSSIFTRIIAGEIPSYKVAEDENYYAFLDINPLTKGHTLVVPKMEVDYIFDLDDKTLAGMMLFAKKG” belongs -0.0969; to “HMDKSNEVLMNHYRKQEINQAKKRLEEEKMSIIQVLQLTNKEVITTDELLEALYISKEQLLDEIINTTQ”, -0.0889.

Regarding “HMVSRVTTPGVVGKTWQETKQILKQADLTVGSLTRDGKDVTPADGDLVTAQNPSAGQAIVRGSSVDLTFDK”, the “soluble fraction (log2)” value came out at 0.31. To “HMHSLLDDIPNVGEKRKRILLTHFQSLEEIKAATVEELERLPQINRKAAESIYTFFHSQPIR” belongs -0.0679; to “HMHMSLTEKYKELTDLAVSAGVQNLNVREQDGVLYVDGDASGAVKQQLWDTYGKLDPDYTSGDLVLNI”, 0.0615; to “HMKRITAVISQKKGRDYYYIIVSYYLSNGKRVQRWIKTEFPINGNNKRKLEQKRIEVLQEWQDKLV”, -1.3. Under “HMGGKWSMPIIYILSKGKMRFKELERSVEGINTRMLVKELKNMEANGIVTREVFPTVPPTVEYALT” stands -0.922; under “HMNDTNEEAVLSIILKNPQATQGAIAKEVGASLSTVKRIMRNLQKSGKLRREGTNRNGSWVVTGQK”, 0.0846. Under “HMIPTDPNGDLIKILYTSDQINELYARAKLNDVEDLFLDWTKNVLGESNFEETGPTKNEYLIPQ” stands -0.149.

Turning to “HMTIDNPESQKIMDMVPFFFQSRNYDEAIEALTYVIEQEPQFSEAYNKRATFYFMMGDLENSMKDIEITLA”, the “soluble fraction (log2)” value was -0.401. On to “HMDEFHLSERERQILNLLVLGHTYKHIASDLNIAYATVNKHVSNVYAKLRVQSASEAVALAIRKGL”, for which the “soluble fraction (log2)” value was -0.899.

In the case of “HMEKIIFEISEEGKRLDLYIAERTELTRTRIQQLIKDGNINVNNKKSKPSYKVEKNDFIEMIIPDE”, the “soluble fraction (log2)” value is -0.56. To “HMPDKIDSAAQGILDKLIRNDGFMAVTDKSPPEAIYKLFGVSKKVFKQAIGSLYKNRLITIEDAGLRIIPQ” belongs -0.0609; to “HMFMSDDDIRILVKEWLQSQNRKSYQLAEEIGIRPQTFYAQMSVRKISANTKKALSRIIPGL”, -0.86; to “HMGADSFTGYTPIHKIDNPSDGINDGASYVVYFQKDGTDPTEFYKAVNANASTLAQLTSGTEYDLASSKKL”, 0.0305. Under “HMIHSEEIQDHIFVKQLGEVFLRNHINYENIMKSWDDHTNVIKRFRRYPHRNKILNRESTIDEISFLKE” stands -0.0665; under “HMGDYERVPEYKGKLTSDLTMEDSQKFAFRFIWQNSDEDEGKIIDQDPPAGKSVAKGSEIVLYVSNG”, 0.35. Turning to “HMTELNNTQRAAVLLLALDEDSAAEVFKHLSAREVQEVSQEMAKLGNISHDQMRQVLDDFYDESEQF”, the “soluble fraction (log2)” value is -0.0259. To “HMNAKVVAPIPGTVLSIDIKVGDVIKIGDRLLVLEAMKMENNIASEKSGTVTAVHVKVGQQVLQNELMIEL” belongs -1.39.

“HMEPVFSDPARQTLYQEVMELPAKYRVPLYLYYYEGYKVDEVGELLGLNASTVQTRLARARAKLKIQL”: the “soluble fraction (log2)” value is -0.627.

In the case of “HMSNRIDKIKLNHWLNIRKTSLDVLNNLLSKHLNHKINFENLENLDEQAIEKISEVLSIPKNKLLINDDVP”, the “soluble fraction (log2)” value amounted to 0.16. To “HMATESYYVLKADVPAKTLVTQEMVEEIKVSKGGAPVNSIKIDNIKEKGVYTSIPLLKGDVLSASNTG” belongs 0.00692; to “HMKQNRNLPVQIINNGKIIESVMTEFNLDIDWVYSEAKRLGYKNIKDIFYAGINRDGQFFIVPLF”, -0.448. Under “HMTKGFSIQDISLSKSTMTFLQQNKITDLASLLSMSKSQIEGMKGFKPKMIQEIEKNLDKVGLVLAQD” stands 0.176. On to “HMDEWFPVNDDYKFMVGDEVRTPDGLVKVVATHNDSATFYGKIITPIHDDVLKGETYEYRSYEAQVLA”, for which the “soluble fraction (log2)” value was -0.425. As for “HMFIPMTDAQRHLFANKLAKLPELSEYSRGTESYEDFAIRIADMLLEPPKFRMFYPLLEQLGF”, the “soluble fraction (log2)” value was -1.88. Take “HMDRKFFYEDQYQDYLGEELKVSFFDTDNKKTVRGTLSEVTPHGIKINLEQETQEIPFSSIIQANLI”: the “soluble fraction (log2)” value stood at 0.201. Regarding “HMKPVPPLNGTSLRDLALGYAGRYATTAARLKHYLQRKLRERGWGGEDEPDLDGLVARLVELGYVNDEVF”, the “soluble fraction (log2)” value is -0.102.

With “HMSEVSEILTRARFFAGVKTDAELSTLLKIPYGTLIGWKTRKNIPESRIAQMALILGIRRDTLIPA”, the “soluble fraction (log2)” value is -1.71. As for “HMDDFGERLRKLRVAQDLTQQQLGEKLGVVPSTIGKYEKVKDSYPSIEVLIKLSDFFSVSTDYLLKG”, the “soluble fraction (log2)” value is -1.88. For “HMDYYKILGLSTSATLDQIKKAFRQLAIEFHPDKNPNNPTAEDKFQRISEAYAVLSNPEKRAEYDRSY”, the “soluble fraction (log2)” value was -0.0923. Under “HMAMKFQDIVRQKRKELGLTQEQAARRLGVSPAAVSKWESGQSLPDTPLFAPLARLLHTDLNTLLSFE” stands -0.732; under “HMLETILQIGKDGVGENLVKQVNDALEARELIKGRVLDNNLELDARTAAQILAKATRSEVVQVIGTKFV”, -0.0922; under “HMRPQIAIDAIQALSLIMRTENKEDPTYLESRRVVSDAVAKRLSLNPTDLNRAWSRAPRDHQIAVLSALTQ”, -0.853.
